Assay results from patent US20220119513A1 (ZOETIS SERVICES, published 2022).
Residue numbers refer to the chain shown, from its start. Numbers in names are those of the source. Blank lines part the entries; values can stand above or below the binder they belong to.

Columns and labels:
TGFβ1 (R&D Systems) [1] = assay: cell-based or functional assay
TGFβ1 (R&D Systems) [2] = target: T1, TGFβ1 (R&D Systems); assay: SPR full titration
T1 construct: also called TGFB1

TGFβ1 (R&D Systems) [3] = target: T1, TGFβ1 (R&D Systems); assay: single point SPR
TGFβ3 (R&D Systems) [4] = target: T2, TGFβ3 (R&D Systems) (Homo sapiens (Human), UniProt P10600 301-412, Active TGFβ3 is a disulfide-linked homodimer of this chain; one copy is given.); assay: SPR
T2 construct: also called TGFB3
T2 sequence: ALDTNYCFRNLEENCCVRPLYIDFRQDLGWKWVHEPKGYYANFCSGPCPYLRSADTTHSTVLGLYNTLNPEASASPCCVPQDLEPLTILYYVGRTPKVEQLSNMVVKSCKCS

TGFβ2 (R&D Systems) [5] = target: T3, TGFβ2 (R&D Systems); assay: SPR full titration
T3 construct: also called TGFB2
T3 sequence (P61812 303-414, species assumed, looked up): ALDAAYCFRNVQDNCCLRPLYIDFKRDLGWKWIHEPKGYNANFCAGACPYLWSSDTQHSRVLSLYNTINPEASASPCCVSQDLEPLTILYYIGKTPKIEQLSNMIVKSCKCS

TGFβ3 (R&D Systems) [6] = target: T2, TGFβ3 (R&D Systems); assay: SPR full titration
TGFβ1 (R&D Systems) [7] = target: T1, TGFβ1 (R&D Systems); assay: SPR full titration; remark: listed apart in the source
TGFβ2 (R&D Systems) [8] = target: T3, TGFβ2 (R&D Systems); assay: cell-based or functional assay
TGFβ3 (R&D Systems) [9] = target: T2, TGFβ3 (R&D Systems); assay: cell-based or functional assay
TGFβ1 (R&D Systems) [10] = target: T1, TGFβ1 (R&D Systems); assay: cell-based or functional assay; remark: listed apart in the source

T1 sequence (P01137 279-390): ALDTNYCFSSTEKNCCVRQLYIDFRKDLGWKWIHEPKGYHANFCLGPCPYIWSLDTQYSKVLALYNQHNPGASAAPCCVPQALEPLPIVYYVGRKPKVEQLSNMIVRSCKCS

CMVIC pSmad-3, IC50 (TGFβ1 (R&D Systems) [1]): 43.3 nM
Kd (TGFβ1 (R&D Systems) [2]): 0.065 nM
Kd (TGFβ1 (R&D Systems) [3]): 8.04 nM
B1: Can-SL501-VH3 Y111F / Can-SL501-VL2 (antibody, V domains shown)
VH: EVQLVESGGDLVKPGGSLRLSCVASGFTFSSYGMHWVRQAPGKELEWVAVISYDGSIKYYADAVKGRFTISRDNAKNTLYLQMNSLRAEDTAVYYCARTGEYSGYDTDPQFSWGQGTTVTVSS
VL: EIVMTQSPGSLAGSAGESVSINCRASQGIGDDLGWYQQKPGERPKLLIYGTSTLQSGVPARFSSSGSGTDFTLTINNLQAEDVGDYYCLQDSNYPLTFGAGTK

binding result (TGFβ3 (R&D Systems) [4]): no binding
B2: felHclb_heterochimera-14 (antibody, V domains shown)
VH: QVLLVQSGAEVRTPGASVKIFCKASGYIFITYYMHWVRQSPAQGLEWMGQIFPASGSTNYNEMFEGRLTLTADTSTNTAYMELSSLRSADTAMYYCARGDGNYALDAMDYWGQGTSVTVSS
VL: DIVLTQTPASLAVSLGQRATISCRASESVDSYGNSFMHWYQQKSGQPPKLLIYLASNLESGVPARFSGSGSRTDFTLTIDPVEADDAATYYCQQNNEDPLTFGAGTK
notes: hetero-pairing; also called felHclbH1-1x/mHclbVL

binding result (TGFβ3 (R&D Systems) [4]): no binding
B3: felHclb_heterochimera-15 (antibody, V domains shown)
VH: QVLLVQSGAEVRKPGASVKIFCKASGYTFITYYMHWLRQAPEQGLEWMGRIFPASGSTSYAQKFQGRLTLTADTSTNTAYMELSSLRSADTAMYYCARGDGNYALDAMDYWGQGALVTVSS
VL: B2 VL
notes: hetero-pairing; also called felHclbH618s/mHclbVL

binding result (TGFβ3 (R&D Systems) [4]): no binding
B4: felHclb_heterochimera-11 (antibody, V domains shown)
VH: B3 VH with K13R, T28I, E42A, L45F, R50S, N77D, M93V, Q113H, A115T, L116I
VL: B2 VL
notes: hetero-pairing; also called felHclbH636/mHclbVL

binding result (TGFβ3 (R&D Systems) [4]): no binding
B5: felHclb_heterochimera-13 (antibody, V domains shown)
VH: B2 VH with T13R, V37L, S40A, L45F, N77D, M93V, Q113H, S116I
VL: B2 VL
notes: hetero-pairing; also called felHclbH636x/mHclbVL

binding result (TGFβ3 (R&D Systems) [4]): no binding
B6: felHclb_heterochimera-12 (antibody, V domains shown)
VH: B2 VH with Q50S, N59S, N61A, E62Q, M63K, E65Q
VL: B2 VL
notes: hetero-pairing; also called felHclbH1-1/mHclbVL

binding result (TGFβ3 (R&D Systems) [4]): no binding
B7: felHclb_heterochimera-16 (antibody, V domains shown)
VH: B3 VH with R50Q, S59N, A61N, Q62E, K63M, Q65E
VL: B2 VL
notes: hetero-pairing; also called felHclbH618x/mHclbVL

Kd (TGFβ2 (R&D Systems) [5]): 3.92 nM
Kd (TGFβ3 (R&D Systems) [6]): 0.87 nM
Kd (TGFβ1 (R&D Systems) [7]): 6.18 nM
pSmad-3, IC50 (TGFβ2 (R&D Systems) [8]): 1.15 nM
pSmad-3, IC50 (TGFβ3 (R&D Systems) [9]): 1.2 nM
pSmad-3, IC50 (TGFβ1 (R&D Systems) [10]): 0.69 nM
B8: affinity matured HcLb 261 (antibody, V domains shown)
VH: EVQLVQSGAEVKKPGASVKVSCKTSGYTFMTYWMNWVRQAPGAGLDWMGQIFPAWGSTNYNEMFEGRVTLTADTSTSTAYMELSSLRAGDIAVYYCARGYGNYALDAMDYWGQGTLVTVSS
VL: DIVMTQTPPSLSVSPRETASISCRASESVDSYGNSFMHWYLQKPGQSPQLLIYLASNLESGVSDRFSGSGSGTDFTLRISRVEANDTGVYYCQQNNEDPLTFGQ
notes: full IgG; constant regions not restated

binding result (TGFβ3 (R&D Systems) [4]): no binding
B9: felHclb_heterochimera-5 (antibody, V domains shown)
VH: B3 VH
VL: B8 VL
notes: hetero-pairing

binding result (TGFβ3 (R&D Systems) [4]): no binding
B10: felHclb_heterochimera-1 (antibody, V domains shown)
VH: B3 VH with K13R, T28I, E42A, L45F, R50S, N77D, M93V, Q113H, A115T, L116I
VL: B8 VL
notes: hetero-pairing

binding result (TGFβ3 (R&D Systems) [4]): no binding
B11: felHclb_heterochimera-4 (antibody, V domains shown)
VH: B2 VH
VL: B8 VL
notes: hetero-pairing

Kd (TGFβ2 (R&D Systems) [5]): 4.36 nM
Kd (TGFβ3 (R&D Systems) [6]): 0.79 nM
Kd (TGFβ1 (R&D Systems) [7]): 3.79 nM
pSmad-3, IC50 (TGFβ2 (R&D Systems) [8]): 1.64 nM
pSmad-3, IC50 (TGFβ3 (R&D Systems) [9]): 1.24 nM
pSmad-3, IC50 (TGFβ1 (R&D Systems) [10]): 1.33 nM
B12: affinity matured HcLb 260 (antibody, V domains shown)
VH: SEVQLVQSGAEVKKPGASVKVSCKTSGYTFITYWMNWVRQAPGAGLDWMGQIFPAWGVTNYNEMFEGRVTLTADTSTSTAYMELSSLRAGDIAVYYCARGYGNYALDAMDYWGQGTLVTVSS
VL: B8 VL
notes: as for B8

Kd (TGFβ2 (R&D Systems) [5]): 2.91 nM
Kd (TGFβ3 (R&D Systems) [6]): 0.37 nM
Kd (TGFβ1 (R&D Systems) [7]): 3.76 nM
pSmad-3, IC50 (TGFβ2 (R&D Systems) [8]): 2.1 nM
pSmad-3, IC50 (TGFβ3 (R&D Systems) [9]): 1.03 nM
pSmad-3, IC50 (TGFβ1 (R&D Systems) [10]): 1.41 nM
B13: affinity matured HcLb 263 (antibody, V domains shown)
VH: B8 VH with T28I, M30I
VL: B8 VL
notes: as for B8

binding result (TGFβ3 (R&D Systems) [4]): no binding
B14: felHclb_heterochimera-2 (antibody, V domains shown)
VH: B2 VH with Q50S, N59S, N61A, E62Q, M63K, E65Q
VL: B8 VL
notes: hetero-pairing

Kd (TGFβ2 (R&D Systems) [5]): 6.73 nM
Kd (TGFβ3 (R&D Systems) [6]): 0.856 nM
Kd (TGFβ1 (R&D Systems) [7]): 6.18 nM
pSmad-3, IC50 (TGFβ2 (R&D Systems) [8]): 1.85 nM
pSmad-3, IC50 (TGFβ3 (R&D Systems) [9]): 1.37 nM
pSmad-3, IC50 (TGFβ1 (R&D Systems) [10]): 3.16 nM
B15: affinity matured HcLb 262 (antibody, V domains shown)
VH: B8 VH with M30I, T31K
VL: B8 VL
notes: as for B8
